# Results as given in IntAct's records for PubMed 28202711.
# Columns and labels:
# [1] = biological target: 1433g_human YWHAG (UniProt P61981)
# [2] = biological target: 1433g_human YWHAG (UniProt P61981); remark: listed apart in the source
# Chain of UniProt P61981 (P61981 whole entry): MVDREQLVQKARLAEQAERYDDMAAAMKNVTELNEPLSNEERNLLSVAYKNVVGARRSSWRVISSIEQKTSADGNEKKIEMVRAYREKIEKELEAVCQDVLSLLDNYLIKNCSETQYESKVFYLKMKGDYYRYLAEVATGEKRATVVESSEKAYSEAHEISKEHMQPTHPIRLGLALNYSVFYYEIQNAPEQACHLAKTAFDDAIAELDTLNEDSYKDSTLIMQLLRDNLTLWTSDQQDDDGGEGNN
Substance,effect of a mutation on the interaction [1],effect of a mutation on the interaction [2]
"Leucine-rich repeat serine/threonine-protein kinase 2 (Homo sapiens), Q5S007 R1441G",decreasing interaction strength,with no effect
"Leucine-rich repeat serine/threonine-protein kinase 2 (Homo sapiens), Q5S007 R1441H",decreasing interaction strength,
"Leucine-rich repeat serine/threonine-protein kinase 2 (Homo sapiens), Q5S007 R1441C",decreasing interaction strength,
